The results in this text go back to article PMC8061786 (Journal of Molecular Biology, 2021).

This data set deals with the molecule itself. As to the kind of experiment: crystal structure.

B1: SARS-CoV main protease (M^pro) (enzyme)
chain: SGFRKMAFPSGKVEGCMVQVTCGTTTLNGLWLDDTVYCPRHVICTAEDMLNPNYEDLLIRKSNHSFLVQAGNVQLRVIGHSMQNCLLRLKVDTSNPKTPKYKFVRIQPGQTFSVLACYNGSPSGVYQCAMRPNHTIKGSFLNGSCGSVGFNIDYDCVSFCYMHHMELPTGVHAGTDLEGKFYGPFVDRQTAQAAGTDTTITLNVLAWLYAAVINGDRWFLNRFTTTLNDFNLVAMKYNYEPLTQDHVDILGPLSAQTGIAVLDMCAALKELLQNGMNGRTILGSTILEDEFTPFDVVRQCSGVTFQ
Take B1: the binding result is “binds”.
